Reference: paper doi:10.1101/2022.08.13.503841 (bioRxiv, 2022)

Biological target: the molecule itself
Assay: cryo-EM structure

B1: Chikungunya virus non-structural protein 1 (nsP1) (enzyme)
chain: MDPVYVDIDADSAFLKALQRAYPMFEVEPRQVTPNDHANARAFSHLAIKLIEQEIDPDSTILDIGSAPARRMMSDRKYHCVCPMRSAEDPERLANYARKLASAAGKVLDRNISGKIGDLQAVMAVPDTETPTFCLHTDVSCRQRADVAIYQDVYAVHAPTSLYHQAIKGVRLAYWVGFDTTPFMYNAMAGAYPSYSTNWADEQVLKAKNIGLCSTDLTEGRRGKLSIMRGKKLEPCDRVLFSVGSTLYPESRKLLKSWHLPSVFHLKGKLSFTCRCDTVVSCEGYVVKRITMSPGLYGKTTGYAVTHHADGFLMCKTTDTVDGERVSFSVCTYVPATICDQMTGILATEVTPEDAQKLLVGLNQRIVVNGRTQRNTNTMKNYMIPVVAQAFSKWAKECRKDMEDEKLLGVRERTLTCCCLWAFKKQKTHTVYKRPDTQSIQKVQAEFDSFVVPSLWSSGLSIPLRTRIKWLLSKVPKTDLTPYSGDAQEARDAEKEAEEEREAELTLEALPPLQAAQEDVQVEIDVEQLEDRAGA
In the case of B1, the “stoichiometry N” value is reported as 12.
